Test results from US20180326082A1 (Sanofi, published 2018).
Where two headings read alike, the source gives them in different places.

How the values were obtained:
porcine TSH receptor [1] = target: T1, porcine TSH receptor (porcine, UniProt Q8SPP9 22-764, limits assumed); assay: competition ELISA; displacement of biotinylated rhTSH from immobilized porcine TSH receptor
T1 construct: Bought, coated on kit plates; the construct is not described; also called immobilized porcine TSH receptor
Description: (§1) Purified PEGylated conjugates were analyzed by in vitro porcine TSH receptor binding assay using the TSH Receptor Autoantibody 2nd Generation ELISA kit from RSR Limited (Kronus, Star, Id.). Instead of using the biotinylated human monoclonal autoantibody to the TSH receptor provided by the kit, we biotinylated Thyrogen® (rhTSH) to use for competitive inhibition of binding to TSH receptor. Binding of biotinylated rhTSH to immobilized porcine TSH receptor was inhibited by either rhTSH control or PEGylated rhTSH conjugates and IC₅₀ values were measured.
(§2) Thyrogen® was biotinylated with 1.7 to 1.8 biotins per protein using the ChromaLink™ Biotin Labeling Reagent according to the manufacturer's protocol (QED Bioscience Inc., San Diego, Calif.) and buffer exchanged into 50 mM sodium phosphate, 150 mM sodium chloride pH 7.0 with a Zeba™ Desalt Spin Column (Thermo Scientific, Rockford, Ill.). In vitro measurement of receptor binding was performed by competition of biotinylated Thyrogen® and PEG-rhTSH conjugate for binding to porcine TSH receptor immobilized onto 96-well plates supplied with the TSH Receptor Autoantibody 2nd Generation ELISA kit from RSR Limited (Kronus, Star, Id.). PEG-rhTSH conjugates were serially diluted 1:5 from 16 μM to 41 pM in assay buffer (100 mM HEPES pH 7.5, 20 mM EDTA, 1% BSA, 0.5% Triton X-100) and mixed 1:1 with biotinylated Thyrogen® diluted 1000-fold in assay buffer. The mixture was added to each receptor-coated well and incubated at 25° C. for 25 minutes. Unbound rhTSH was washed away and streptavidin peroxidase was added at 25° C. for 20 minutes according to the RSR Limited ELISA protocol to determine the amount of biotinylated Thyrogen® bound to the plate. The plate was then washed three times to remove excess unbound streptavidin peroxidase and then tetramethylbenzidine (TMB) was added to each well and incubated in the dark at 25° C. for 30 minutes. The reaction which was quenched with 0.5M sulfuric acid stop buffer and the absorbance of each well was read at 450 nm using a SpectraMax® 340pc plate reader (Molecular Devices, Sunnyvale, Calif.). The data was fit using a sigmoidal dose response equation with GraphPad Prism software to generate IC₅₀ values.

porcine TSH receptor [2] = target: T1, porcine TSH receptor; assay: as above; remark: listed apart in the source
Description: as §1, §2

porcine TSH receptor [3] = target: T1, porcine TSH receptor; assay: in vitro TSH receptor binding assay (competition ELISA)

T1 sequence (Q8SPP9 22-764 limits assumed): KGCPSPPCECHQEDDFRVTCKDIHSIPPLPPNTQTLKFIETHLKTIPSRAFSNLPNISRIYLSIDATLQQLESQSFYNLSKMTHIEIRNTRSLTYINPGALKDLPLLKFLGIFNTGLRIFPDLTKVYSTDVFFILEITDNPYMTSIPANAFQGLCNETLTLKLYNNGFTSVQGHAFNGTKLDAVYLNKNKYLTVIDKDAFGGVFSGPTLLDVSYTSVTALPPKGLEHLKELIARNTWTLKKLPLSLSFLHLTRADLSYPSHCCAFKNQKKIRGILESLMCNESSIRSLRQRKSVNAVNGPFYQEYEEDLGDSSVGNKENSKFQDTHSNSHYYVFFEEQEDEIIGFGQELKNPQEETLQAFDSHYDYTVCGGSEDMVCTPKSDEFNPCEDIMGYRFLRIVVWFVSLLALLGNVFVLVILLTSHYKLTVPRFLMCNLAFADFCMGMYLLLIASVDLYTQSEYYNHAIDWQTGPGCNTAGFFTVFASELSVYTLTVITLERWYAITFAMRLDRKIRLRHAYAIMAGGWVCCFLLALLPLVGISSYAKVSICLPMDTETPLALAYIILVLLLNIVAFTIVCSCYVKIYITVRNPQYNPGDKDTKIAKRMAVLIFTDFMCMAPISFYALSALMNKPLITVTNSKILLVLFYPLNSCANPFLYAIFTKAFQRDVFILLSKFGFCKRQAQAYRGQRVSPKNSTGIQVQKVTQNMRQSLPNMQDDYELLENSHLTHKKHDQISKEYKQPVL

Row | Binder | IC50 (porcine TSH receptor [1]) | fold change (IC50 against rhTSH) (porcine TSH receptor [1]) | IC50 (porcine TSH receptor [2]) | fold change (IC50 against rhTSH) (porcine TSH receptor [2]) | fold decrease of in vitro TSH receptor binding affinity, compared to the rhTSH control (porcine TSH receptor [3])
1 | 40 kD monoSAM PEGylated rhTSH (ligand, see alpha chain; glycan at ASN23 is a possible PEG site; one 40 kD aminoxy PEG per protein on periodate-oxidized sialic acid of an N-linked glycan (ASN52 or ASN78 of alpha, or ASN23 of beta); 58% of the conjugate modified on the alpha subunit, Sialic acid-mediated (SAM) monoPEGylation of rhTSH; also called 40 kD SAM; mono-40 kDa aminoxy PEG-TSH (SAM PEGylation)) chain 1: not shown chain 2: FCIPTEYTMHIERRECAYCLTINTTICAGYCMTRDINGKLFLPKYALSQDVCTYRDFIYRTVEIPGCPLHVAPYFSYPVALSCKCGKCNTDYSDCIHEAIKTNYCTKPQKSY | 196 nM | 5.3 fold | – | – | –
2 | 40 kD GAM+ PEGylated rhTSH (ligand, see alpha chain; glycan at ASN23 is a possible PEG site; sialic acid removed with neuraminidase; one 40 kD aminoxy PEG per protein on galactose oxidase-oxidized galactose of an N-linked glycan (ASN52 or ASN78 of alpha, or ASN23 of beta); 66% of the conjugate modified on the alpha subunit) chain 1: not shown chain 2: FCIPTEYTMHIERRECAYCLTINTTICAGYCMTRDINGKLFLPKYALSQDVCTYRDFIYRTVEIPGCPLHVAPYFSYPVALSCKCGKCNTDYSDCIHEAIKTNYCTKPQKSY | 133 nM | 3.6 fold | – | – | –
3 | 40 kD GAM- PEGylated rhTSH (ligand, see alpha chain; glycan at ASN23 is a possible PEG site; one 40 kD aminoxy PEG per protein on galactose oxidase-oxidized galactose of an N-linked glycan (ASN52 or ASN78 of alpha, or ASN23 of beta); 77% of the conjugate modified on the alpha subunit) chain 1: not shown chain 2: FCIPTEYTMHIERRECAYCLTINTTICAGYCMTRDINGKLFLPKYALSQDVCTYRDFIYRTVEIPGCPLHVAPYFSYPVALSCKCGKCNTDYSDCIHEAIKTNYCTKPQKSY | 294 nM | 8 fold | – | – | –
4 | 10 kD multiSAM PEGylated rhTSH (ligand, see alpha chain; glycan at ASN23 is a possible PEG site; more than one 10 kD aminoxy PEG per protein on periodate-oxidized sialic acid of the N-linked glycans (ASN52, ASN78 of alpha; ASN23 of beta); split between sites not stated) chain 1: not shown chain 2: FCIPTEYTMHIERRECAYCLTINTTICAGYCMTRDINGKLFLPKYALSQDVCTYRDFIYRTVEIPGCPLHVAPYFSYPVALSCKCGKCNTDYSDCIHEAIKTNYCTKPQKSY | 138 nM | 3.8 fold | – | – | –
5 | 20 kD GAM+ PEGylated rhTSH (ligand, see alpha chain; glycan at ASN23 is a possible PEG site; sialic acid removed with neuraminidase; one 20 kD aminoxy PEG per protein on galactose oxidase-oxidized galactose of an N-linked glycan (ASN52 or ASN78 of alpha, or ASN23 of beta)) chain 1: not shown chain 2: FCIPTEYTMHIERRECAYCLTINTTICAGYCMTRDINGKLFLPKYALSQDVCTYRDFIYRTVEIPGCPLHVAPYFSYPVALSCKCGKCNTDYSDCIHEAIKTNYCTKPQKSY | 81.7 nM | 2.2 fold | – | – | –
6 | 40 kD N-terminal mono-PEGylated rhTSH (ligand, see alpha chain; one 40 kD aldehyde PEG per protein at an N-terminus (reductive amination); which subunit is not stated) chain 1: not shown chain 2: FCIPTEYTMHIERRECAYCLTINTTICAGYCMTRDINGKLFLPKYALSQDVCTYRDFIYRTVEIPGCPLHVAPYFSYPVALSCKCGKCNTDYSDCIHEAIKTNYCTKPQKSY | 397 nM | 10.8 fold | 0.319 µM | 11.4 fold | 11.1 fold
7 | 40 kD Lysine mono-PEGylated rhTSH (ligand, see alpha chain; one 40 kDa NHS PEG per protein on a lysine; which lysine and subunit are not stated, SEC fraction of the mono-PEGylated species; also called mono-40 kDa NHS PEG-TSH (Lysine PEGylation)) chain 1: not shown chain 2: FCIPTEYTMHIERRECAYCLTINTTICAGYCMTRDINGKLFLPKYALSQDVCTYRDFIYRTVEIPGCPLHVAPYFSYPVALSCKCGKCNTDYSDCIHEAIKTNYCTKPQKSY | 876 nM | 31.2 fold | 0.876 µM | 31.2 fold | –
8 | 20 kD monoSAM PEGylated rhTSH (ligand, see alpha chain; glycan at ASN23 is a possible PEG site; one 20 kD aminoxy PEG per protein on periodate-oxidized sialic acid of an N-linked glycan (ASN52 or ASN78 of alpha, or ASN23 of beta), Sialic acid-mediated (SAM) monoPEGylation of rhTSH; also called 20 kD SAM) chain 1: not shown chain 2: FCIPTEYTMHIERRECAYCLTINTTICAGYCMTRDINGKLFLPKYALSQDVCTYRDFIYRTVEIPGCPLHVAPYFSYPVALSCKCGKCNTDYSDCIHEAIKTNYCTKPQKSY | 92.3 nM | 2.5 fold | – | – | –
9 | 10 kD monoSAM PEGylated rhTSH (ligand, see alpha chain; glycan at ASN23 is a possible PEG site; one 10 kD aminoxy PEG per protein on periodate-oxidized sialic acid of an N-linked glycan (ASN52 or ASN78 of alpha, or ASN23 of beta), Sialic acid-mediated (SAM) monoPEGylation of rhTSH; also called 10 kD SAM) chain 1: not shown chain 2: FCIPTEYTMHIERRECAYCLTINTTICAGYCMTRDINGKLFLPKYALSQDVCTYRDFIYRTVEIPGCPLHVAPYFSYPVALSCKCGKCNTDYSDCIHEAIKTNYCTKPQKSY | 78.1 nM | 2.1 fold | – | – | –
10 | 20 kD GAM- PEGylated rhTSH (ligand, see alpha chain; glycan at ASN23 is a possible PEG site; one 20 kD aminoxy PEG per protein on galactose oxidase-oxidized galactose of an N-linked glycan (ASN52 or ASN78 of alpha, or ASN23 of beta)) chain 1: not shown chain 2: FCIPTEYTMHIERRECAYCLTINTTICAGYCMTRDINGKLFLPKYALSQDVCTYRDFIYRTVEIPGCPLHVAPYFSYPVALSCKCGKCNTDYSDCIHEAIKTNYCTKPQKSY | 101 nM | 2.7 fold | – | – | –
11 | recombinant human TSH (rhTSH), THYROGEN Thyroid Stimulating Hormone (ligand, N-linked carbohydrate chain at ASN23; N-linked carbohydrate chains at ASN52 and ASN78, Heterodimer of alpha and beta subunit; also called TSH control; control TSH, starting material) chain 1: not shown chain 2: FCIPTEYTMHIERRECAYCLTINTTICAGYCMTRDINGKLFLPKYALSQDVCTYRDFIYRTVEIPGCPLHVAPYFSYPVALSCKCGKCNTDYSDCIHEAIKTNYCTKPQKSY | 36.7 nM | 1 fold | 0.028 µM | 1 fold | –
12 | 60 kD 2-arm PEG G22C rhTSH (ligand, 60 kD 2-arm cysteine-reactive PEG on Cys22) chain 1: not shown chain 2: FCIPTEYTMHIERRECAYCLTINTTICAGYCMTRDINGKLFLPKYALSQDVCTYRDFIYRTVEIPGCPLHVAPYFSYPVALSCKCGKCNTDYSDCIHEAIKTNYCTKPQKSY | – | – | 11.3 µM | 404 fold | –
13 | 60 kD 4-arm PEG G22C rhTSH (ligand, 60 kD 4-arm cysteine-reactive PEG on Cys22) chain 1: not shown chain 2: FCIPTEYTMHIERRECAYCLTINTTICAGYCMTRDINGKLFLPKYALSQDVCTYRDFIYRTVEIPGCPLHVAPYFSYPVALSCKCGKCNTDYSDCIHEAIKTNYCTKPQKSY | – | – | 4020 µM | 144000 fold | –
14 | 50 kD 3-arm PEG G22C rhTSH (ligand, 50 kD 3-arm cysteine-reactive PEG on Cys22) chain 1: not shown chain 2: FCIPTEYTMHIERRECAYCLTINTTICAGYCMTRDINGKLFLPKYALSQDVCTYRDFIYRTVEIPGCPLHVAPYFSYPVALSCKCGKCNTDYSDCIHEAIKTNYCTKPQKSY | – | – | 0.281 µM | 10 fold | –
15 | 40 kD linear PEG G22C rhTSH (ligand, 40 kD linear cysteine-reactive PEG on Cys22, also called 40 kD linear G22C; 40 kD G22C) chain 1: not shown chain 2: FCIPTEYTMHIERRECAYCLTINTTICAGYCMTRDINGKLFLPKYALSQDVCTYRDFIYRTVEIPGCPLHVAPYFSYPVALSCKCGKCNTDYSDCIHEAIKTNYCTKPQKSY | – | – | 0.248 µM | 8.9 fold | –
16 | 40 kD 2-arm PEG G22C rhTSH (ligand, 40 kD 2-arm cysteine-reactive PEG on Cys22) chain 1: not shown chain 2: FCIPTEYTMHIERRECAYCLTINTTICAGYCMTRDINGKLFLPKYALSQDVCTYRDFIYRTVEIPGCPLHVAPYFSYPVALSCKCGKCNTDYSDCIHEAIKTNYCTKPQKSY | – | – | 0.417 µM | 14.9 fold | –
17 | 40 kD 4-arm PEG G22C rhTSH (ligand, 40 kD 4-arm cysteine-reactive PEG on Cys22) chain 1: not shown chain 2: FCIPTEYTMHIERRECAYCLTINTTICAGYCMTRDINGKLFLPKYALSQDVCTYRDFIYRTVEIPGCPLHVAPYFSYPVALSCKCGKCNTDYSDCIHEAIKTNYCTKPQKSY | – | – | 0.743 µM | 26.5 fold | –
18 | G22C rhTSH (ligand, introduced cysteine found capped after expression and purification, Cysteine mutant without PEG, produced from CHO cells; also called TSH G22C(alpha); G22C(a)) chain 1: not shown chain 2: FCIPTEYTMHIERRECAYCLTINTTICAGYCMTRDINGKLFLPKYALSQDVCTYRDFIYRTVEIPGCPLHVAPYFSYPVALSCKCGKCNTDYSDCIHEAIKTNYCTKPQKSY | – | – | 0.0416 µM | 1.5 fold | –
